Experimental findings from publication PMC9169858 (Proceedings of the National Academy of Sciences of the …, 2022) are described below.

For this experiment, the target named is SARS-CoV-2 main protease (M^pro), pGEX4T-1 construct, GST removed by thrombin (SARS-CoV-2, Wuhan-Hu-1 (MN908947.3)). In words: BLI. To be noted: both partners purified.

B1: NB2E3 (VHH)
VHH: QVQLQESGGGSVQAGGSLRLSCAVSGFIATSCALGWFRQAPGKEREGIATITTDGTTYYVDSVKGRFTISQDNAKNTVALQMNSLKPEDTAMYYCKLCCSGQYCAWGQGTQVTVSS
Consider B1, for which the binding result is on record as “binds”.

B2: NB1D10 (VHH)
VHH: QVQLQESGGGSVQAGGSLRLSCAVSGYSYCNYDLGWFRQAPGKEREGIATIDSDGNTYYVDSVKGRFTISQDNAKNTVALQMNSLKPEDTAMYYCKVGSIASSVPEVSCPPSAPFGYWGQGTQVTVSS
Take B2: the binding result is given as “binds”.
